These results are taken from paper PMC2914677, “Characterisation of recombinant pyranose oxidase from the cultivated mycorrhizal basidiomycete Lyophyllum shimeji (hon-shimeji)” (Microbial Cell Factories, 2010).

One may read the Km as the substrate concentration at which the rate is half of its maximum. By kcat is commonly meant the number of substrate molecules converted per active site and unit of time at saturation. The term kcat/Km denotes the turnover number divided by the Michaelis constant.

One data set has as its target T1, LsP2Ox (Lyophyllum shimeji, UniProt Q75ZP8).
T1 construct: gene p2ox; full-length cDNA (ORF 1857 bp, 619 residues), C-terminal His6 tag kept, pET21a(+), E. coli Rosetta 2; purified by AIEX and preparative native PAGE; subunit 68,488 Da
Briefly: absorbance at […] nm. The data set is classed as biochemical. Particulars: apparent; electron acceptor, 100 mM D-glucose, oxygen removed with nitrogen, pH 6.5, 30°C, 50 mM potassium phosphate; used as PF6 salt.

The target in the next data set is T2, PcP2Ox (Phanerodontia chrysosporium, UniProt Q6QWR1).
T2 construct: gene p2ox; C-terminal His6 tag kept, pET21-a(+), E. coli BL21(DE3), IMAC
Briefly: absorbance at […] nm. Format: biochemical. Conditions: apparent; electron acceptor, 100 mM D-glucose, oxygen removed with nitrogen, pH 6.5, 30°C, 50 mM potassium phosphate; used as PF6 salt.

In a further data set the target is T3, TmP2Ox (Trametes ochracea, UniProt Q7ZA32).
T3 construct: gene p2o; C-terminal His6 tag kept, pET21-d(+), E. coli BL21(DE3), IMAC
The experiment in a line: absorbance at […] nm. The data set is classed as biochemical. Particulars: apparent; electron acceptor, 100 mM D-glucose, oxygen removed with nitrogen, pH 6.5, 30°C, 50 mM potassium phosphate; used as PF6 salt.

The test system of data set [1] is O=C1C(Cl)=CC(=Nc2ccc(O)cc2)C=C1Cl. The experiment in a line: purified protein. Particulars: apparent, electron acceptor, 100 mM D-glucose, oxygen removed with nitrogen, pH 6.5, 30°C, 50 mM potassium phosphate.
For another data set, the system named is O=C1C=CC(=O)C=C1. Briefly: purified protein. Conditions: apparent, electron acceptor, 100 mM D-glucose, oxygen removed with nitrogen, pH 6.5, 30°C, 50 mM potassium phosphate.
Substrate in data set [2]: O=C1C(Cl)=CC(=Nc2ccc(O)cc2)C=C1Cl
The experiment in a line: purified protein. The data set is classed as biochemical, Lyophyllum shimeji. Conditions: apparent, electron acceptor, 100 mM D-glucose, oxygen removed with nitrogen, pH 6.5, 30°C, 50 mM potassium phosphate.

Substrate in data set [3]: O=C1C=CC(=O)C=C1
Briefly: purified protein. Format: biochemical, Lyophyllum shimeji. Particulars: apparent, electron acceptor, 100 mM D-glucose, oxygen removed with nitrogen, pH 6.5, 30°C, 50 mM potassium phosphate.

T2 sequence (Q6QWR1 whole entry): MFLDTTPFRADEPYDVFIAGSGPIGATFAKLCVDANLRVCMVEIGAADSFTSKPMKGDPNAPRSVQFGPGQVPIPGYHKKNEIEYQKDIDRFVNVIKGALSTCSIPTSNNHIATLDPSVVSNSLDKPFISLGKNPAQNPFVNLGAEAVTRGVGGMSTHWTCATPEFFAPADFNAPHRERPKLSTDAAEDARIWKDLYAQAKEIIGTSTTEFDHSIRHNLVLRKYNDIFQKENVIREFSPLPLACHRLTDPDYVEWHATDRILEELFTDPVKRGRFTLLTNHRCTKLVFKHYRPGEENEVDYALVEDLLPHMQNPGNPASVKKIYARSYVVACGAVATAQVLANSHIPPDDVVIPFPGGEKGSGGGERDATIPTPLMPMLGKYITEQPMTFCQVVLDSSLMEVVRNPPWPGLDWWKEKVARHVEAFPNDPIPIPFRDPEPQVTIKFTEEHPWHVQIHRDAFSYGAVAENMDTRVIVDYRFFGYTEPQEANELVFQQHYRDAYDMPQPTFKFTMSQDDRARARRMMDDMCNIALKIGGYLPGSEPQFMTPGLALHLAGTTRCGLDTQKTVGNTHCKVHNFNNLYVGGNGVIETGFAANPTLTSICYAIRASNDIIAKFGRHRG

In the case of `C1=CCC=C1.C1=CCC=C1.[Fe+3]` [ferrocenium ion], the Michaelis constant (Km) at LsP2Ox is 187 µM; on PcP2Ox, 330 µM; at TmP2Ox, 507 µM.

With TmP2Ox (Trametes ochracea), in data set [1], the Michaelis-Menten constant (Km) came to 413 µM, the turnover number (kcat) was 42 s⁻¹ and the kcat/Km was 102000 M⁻¹ s⁻¹. Besides, in the data set with O=C1C=CC(=O)C=C1, the Km amounted to 253 µM, the kcat stood at 225 s⁻¹ and the catalytic efficiency (kcat/Km) was determined as 895000 M⁻¹ s⁻¹.

B1: LsP2Ox (Lyophyllum shimeji) (protein)
chain: MSLSTEQMLRDYPRSMQINGQIPKNAIHETYGNDGVDVFIAGSGPIGATYAKLCVEAGLRVVMVEIGAADSFYAVNAEEGTAVPYVPGYHKKNEIEFQKDIDRFVNVIKGALQQVSVPVRNQNVPTLDPGAWSAPPGSSAISNGKNPHQREFENLSAEAVTRGVGGMSTHWTCSTPRIHPPMESLPGIGRPKLSNDPAEDDKEWNELYSEAERLIGTSTKEFDESIRHTLVLRSLQDAYKDRQRIFRPLPLACHRLKNAPEYVEWHSAENLFHSIYNDDKQKKLFTLLTNHRCTRLALTGGYEKKIGAAEVRNLLATRNPSSQLDSYIMAKVYVLASGAIGNPQILYNSGFSGLQVTPRNDSLIPNLGRYITEQPMAFCQIVLRQEFVDSVRDDPYGLPWWKEAVAQHIAKNPTDALPIPFRDPEPQVTTPFTEEHPWHTQIHRDAFSYGAVGPEVDSRVIVDLRWFGATDPEANNLLVFQNDVQDGYSMPQPTFRYRPSTASNVRARKMMADMCEVASNLGGYLPTSPPQFMDPGLALHLAGTTRIGFDKATTVADNNSLVWDFANLYVAGNGTIRTGFGENPTLTSMCHAIKSARSIINTLKGGTDGKNTGEHRNL
notes: full-length cDNA (ORF 1857 bp, 619 residues), C-terminal His6 tag kept, pET21a(+), E. coli Rosetta 2; purified by AIEX and preparative native PAGE; subunit 68,488 Da
Regarding B1, in “purified protein [2]”, the Michaelis-Menten constant (Km) stood at 187 µM, the catalytic constant (kcat) came out at 67.3 s⁻¹ and the catalytic efficiency (kcat/Km) was 361000 M⁻¹ s⁻¹. For the same molecule, in the data set “purified protein [3]”, the Michaelis constant (Km) worked out at 33 µM, the kcat came out at 92.3 s⁻¹ and the specificity constant (kcat/Km) came to 2.76e+06 M⁻¹ s⁻¹.
